The numbers were not newly measured in publication PMC3713533, which cites them from elsewhere.

The target of the data set is VWF73 VWF73 (Homo sapiens) (UniProt P04275).
UniProt P04275, sequence (P04275 1596-1668): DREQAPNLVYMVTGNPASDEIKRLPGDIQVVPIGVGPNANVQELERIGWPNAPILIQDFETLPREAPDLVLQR

Take “ADAMTS13 TSP1 repeat 1 (from UniProt Q76LX8)”: the Kd is 136 nM.

A word on the Kd: it is the concentration at which binding is half-saturated.
